From patent US20200216495A1 (ADRX, published 2020)
Values joined by “and” are separate entries in the source; they are usually repeats but may differ in a detail not shown here. Equal values may be shown once. Square brackets hold non-standard residues; d marks the D form. Ends that are not written are not given here. dMet(O) = CS(=O)CC[C@@H](N)C(=O)O

B1: klklkw (peptide)
peptide: [dK][dL][dK][dL][dK][dW]
B2: wrlkvdw (peptide)
peptide: [dW][dR][dL][dK][dV][dD][dW]
B3: whvkfelf (peptide)
peptide: [dW][dH][dV][dK][dF][dE][dL][dF]
B4: lkirihrh (peptide)
peptide: [dL][dK][dI][dR][dI][dH][dR][dH]
B5: wririrw (peptide)
peptide: [dW][dR][dI][dR][dI][dR][dW]
B6: wklvvw (peptide)
peptide: [dW][dK][dL][dV][dV][dW]
B7: frirlrw (peptide)
peptide: [dF][dR][dI][dR][dL][dR][dW]
B8: fkirihyh (peptide)
peptide: [dF][dK][dI][dR][dI][dH][dY][dH]
B9: lkixihy (peptide)
peptide: [dL][dK][dI][dMet(O)][dI][dH][dY]
B10: wrlkvrww (peptide)
peptide: [dW][dR][dL][dK][dV][dR][dW][dW]
B11: wrlrifw (peptide)
peptide: [dW][dR][dL][dR][dI][dF][dW]
B12: wrlnvnw (peptide)
peptide: [dW][dR][dL][dN][dV][dN][dW]
B13: felhikwh (peptide)
peptide: [dF][dE][dL][dH][dI][dK][dW][dH]
B14: erlkvrw (peptide)
peptide: [dE][dR][dL][dK][dV][dR][dW]
B15: wrlriew (peptide)
peptide: [dW][dR][dL][dR][dI][dE][dW]
B16: wrlrahw (peptide)
peptide: [dW][dR][dL][dR][dA][dH][dW]
B17: wklwlrww (peptide)
peptide: [dW][dK][dL][dW][dL][dR][dW][dW]
B18: wrldvrw (peptide)
peptide: [dW][dR][dL][dD][dV][dR][dW]
B19: lkiriha (peptide)
peptide: [dL][dK][dI][dR][dI][dH][dA]
B20: arlkvrw (peptide)
peptide: [dA][dR][dL][dK][dV][dR][dW]
B21: wrlriha (peptide)
peptide: [dW][dR][dL][dR][dI][dH][dA]
B22: rlrirw (peptide)
peptide: [dR][dL][dR][dI][dR][dW]
B23: fhirlrhh (peptide)
peptide: [dF][dH][dI][dR][dL][dR][dH][dH]
B24: walrihw (peptide)
peptide: [dW][dA][dL][dR][dI][dH][dW]
B25: kikikw (peptide)
peptide: [dK][dI][dK][dI][dK][dW]
B26: lelkikfw (peptide)
peptide: [dL][dE][dL][dK][dI][dK][dF][dW]
B27: lkiaihy (peptide)
peptide: [dL][dK][dI][dA][dI][dH][dY]
B28: lkiyihy (peptide)
peptide: [dL][dK][dI][dY][dI][dH][dY]
B29: lkiwiwyh (peptide)
peptide: [dL][dK][dI][dW][dI][dW][dY][dH]
B30: wrakvrw (peptide)
peptide: [dW][dR][dA][dK][dV][dR][dW]
B31: wrltihw (peptide)
peptide: [dW][dR][dL][dT][dI][dH][dW]
B32: fkirikwh (peptide)
peptide: [dF][dK][dI][dR][dI][dK][dW][dH]
B33: wrtrihw (peptide)
peptide: [dW][dR][dT][dR][dI][dH][dW]
B34: lkirrhyh (peptide)
peptide: [dL][dK][dI][dR][dR][dH][dY][dH]
B35: wrleihw (peptide)
peptide: [dW][dR][dL][dE][dI][dH][dW]
B36: trlrihw (peptide)
peptide: [dT][dR][dL][dR][dI][dH][dW]
B37: wrlkarw (peptide)
peptide: [dW][dR][dL][dK][dA][dR][dW]
B38: wdlkvrw (peptide)
peptide: [dW][dD][dL][dK][dV][dR][dW]
B39: wrlriww (peptide)
peptide: [dW][dR][dL][dR][dI][dW][dW]
B40: lklkikhf (peptide)
peptide: [dL][dK][dL][dK][dI][dK][dH][dF]
B41: wrlmihw (peptide)
peptide: [dW][dR][dL][dM][dI][dH][dW]
B42: lkirrhyh (peptide)
peptide: [dL][dK][dI][dR][dR][dH][dY][dH]
B43: wrlkhrw (peptide)
peptide: [dW][dR][dL][dK][dH][dR][dW]
B44: wrlkvra (peptide)
peptide: [dW][dR][dL][dK][dV][dR][dA]
B45: kvrwwwrl (peptide)
peptide: [dK][dV][dR][dW][dW][dW][dR][dL]
B46: erlkvrww (peptide)
peptide: [dE][dR][dL][dK][dV][dR][dW][dW]
B47: welkvew (peptide)
peptide: [dW][dE][dL][dK][dV][dE][dW]
B48: lkrrihyh (peptide)
peptide: [dL][dK][dR][dR][dI][dH][dY][dH]
B49: wrlrihe (peptide)
peptide: [dW][dR][dL][dR][dI][dH][dE]
B50: rrlrihw (peptide)
peptide: [dR][dR][dL][dR][dI][dH][dW]
B51: wrarihw (peptide)
peptide: [dW][dR][dA][dR][dI][dH][dW]
B52: wrtktrw (peptide)
peptide: [dW][dR][dT][dK][dT][dR][dW]
B53: rlkirw (peptide)
peptide: [dR][dL][dK][dI][dR][dW]
B54: wrmrihw (peptide)
peptide: [dW][dR][dM][dR][dI][dH][dW]
B55: rikirw (peptide)
peptide: [dR][dI][dK][dI][dR][dW]
B56: lkirihy (peptide)
peptide: [dL][dK][dI][dR][dI][dH][dY]
B57: erlrihw (peptide)
peptide: [dE][dR][dL][dR][dI][dH][dW]

These binders were tested against Tau40 P301L protein (human) (assay: cell-based or functional assay).

**Q.** Which “IC50, Tau40 assay (ThT)” value does the source give for B1 here?
**A.** 2.97 µM

**Q.** How did the “IC50, Tau40 assay (ThT)” value turn out when B2 was run?
**A.** 2.7 µM

**Q.** Which “IC50, Tau40 assay (ThT)” value does the source give for B3 here?
**A.** 2.88 µM

**Q.** Which “IC50, Tau40 assay (ThT)” value does the source give for B4 here?
**A.** 3.16 µM

**Q.** Which “IC50, Tau40 assay (ThT)” value does the source give for B5 here?
**A.** 3 µM

**Q.** With B6 as the binder, how does the “IC50, Tau40 assay (ThT)” value read?
**A.** 2.81 µM

**Q.** For B7, which “IC50, Tau40 assay (ThT)” value is on record?
**A.** 3.23 µM

**Q.** With B8 as the binder, how does the “IC50, Tau40 assay (ThT)” value read?
**A.** 2.76 µM

**Q.** With B9 as the binder, how does the “IC50, Tau40 assay (ThT)” value read?
**A.** 2.81 µM

**Q.** B10 was tested. Which “IC50, Tau40 assay (ThT)” value did it give?
**A.** 3.23 µM

**Q.** How did the “IC50, Tau40 assay (ThT)” value turn out when B11 was run?
**A.** 2.79 µM

**Q.** How did the “IC50, Tau40 assay (ThT)” value turn out when B12 was run?
**A.** 3.23 µM

**Q.** How did the “IC50, Tau40 assay (ThT)” value turn out when B13 was run?
**A.** 3.11 µM

**Q.** Which “IC50, Tau40 assay (ThT)” value does the source give for B14 here?
**A.** 3.07 µM

**Q.** With B15 as the binder, how does the “IC50, Tau40 assay (ThT)” value read?
**A.** 3.23 µM

**Q.** With B16 as the binder, how does the “IC50, Tau40 assay (ThT)” value read?
**A.** 3.23 µM

**Q.** With B17 as the binder, how does the “IC50, Tau40 assay (ThT)” value read?
**A.** 2.94 µM

**Q.** Which “IC50, Tau40 assay (ThT)” value does the source give for B18 here?
**A.** 3.13 µM

**Q.** How did the “IC50, Tau40 assay (ThT)” value turn out when B19 was run?
**A.** 2.92 µM

**Q.** For B20, which “IC50, Tau40 assay (ThT)” value is on record?
**A.** 3.23 µM

**Q.** B21 was tested. Which “IC50, Tau40 assay (ThT)” value did it give?
**A.** 3.23 µM

**Q.** With B22 as the binder, how does the “IC50, Tau40 assay (ThT)” value read?
**A.** 2.96 µM

**Q.** How did the “IC50, Tau40 assay (ThT)” value turn out when B23 was run?
**A.** 3.21 µM and 4.3 µM

**Q.** With B24 as the binder, how does the “IC50, Tau40 assay (ThT)” value read?
**A.** 3.23 µM

**Q.** How did the “IC50, Tau40 assay (ThT)” value turn out when B25 was run?
**A.** 2.92 µM

**Q.** B26 was tested. Which “IC50, Tau40 assay (ThT)” value did it give?
**A.** 2.73 µM and 2.85 µM

**Q.** With B27 as the binder, how does the “IC50, Tau40 assay (ThT)” value read?
**A.** 2.96 µM

**Q.** For B28, which “IC50, Tau40 assay (ThT)” value is on record?
**A.** 2.93 µM

**Q.** B29 was tested. Which “IC50, Tau40 assay (ThT)” value did it give?
**A.** 3.19 µM

**Q.** B30 was tested. Which “IC50, Tau40 assay (ThT)” value did it give?
**A.** 3.23 µM

**Q.** With B31 as the binder, how does the “IC50, Tau40 assay (ThT)” value read?
**A.** 2.76 µM

**Q.** For B32, which “IC50, Tau40 assay (ThT)” value is on record?
**A.** 3.06 µM and 5.46 µM

**Q.** Which “IC50, Tau40 assay (ThT)” value does the source give for B33 here?
**A.** 3.23 µM

**Q.** B34 was tested. Which “IC50, Tau40 assay (ThT)” value did it give?
**A.** 3.21 µM

**Q.** Which “IC50, Tau40 assay (ThT)” value does the source give for B35 here?
**A.** 3.23 µM

**Q.** B36 was tested. Which “IC50, Tau40 assay (ThT)” value did it give?
**A.** 2.7 µM

**Q.** Which “IC50, Tau40 assay (ThT)” value does the source give for B37 here?
**A.** 3.23 µM

**Q.** B38 was tested. Which “IC50, Tau40 assay (ThT)” value did it give?
**A.** 2.76 µM

**Q.** Which “IC50, Tau40 assay (ThT)” value does the source give for B39 here?
**A.** 3.06 µM

**Q.** How did the “IC50, Tau40 assay (ThT)” value turn out when B40 was run?
**A.** 2.75 µM

**Q.** B41 was tested. Which “IC50, Tau40 assay (ThT)” value did it give?
**A.** 3.23 µM

What follows are binders tested against Ac-VQIINK-NH2 (SEQ ID NO: 23) (N-terminal acetyl (Ac); C-terminal amide (NH2)) (assay: cell-based or functional assay).

**Q.** With B42 as the binder, how does the “VQIINK Inhibition IC50” value read?
**A.** 10.5 µm

**Q.** For B43, which “VQIINK Inhibition IC50” value is on record?
**A.** 13.5 µm

**Q.** B44 was tested. Which “VQIINK Inhibition IC50” value did it give?
**A.** 20.5 µm

**Q.** For B45, which “VQIINK Inhibition IC50” value is on record?
**A.** 15.2 µm

**Q.** For B46, which “VQIINK Inhibition IC50” value is on record?
**A.** 20.4 µm

**Q.** How did the “VQIINK Inhibition IC50” value turn out when B47 was run?
**A.** 11 µm

**Q.** With B48 as the binder, how does the “VQIINK Inhibition IC50” value read?
**A.** 31.8 µm

**Q.** For B49, which “VQIINK Inhibition IC50” value is on record?
**A.** 14.5 µm

**Q.** B50 was tested. Which “VQIINK Inhibition IC50” value did it give?
**A.** 12.1 µm

**Q.** How did the “VQIINK Inhibition IC50” value turn out when B51 was run?
**A.** 19.1 µm

**Q.** For B52, which “VQIINK Inhibition IC50” value is on record?
**A.** 13.1 µm

**Q.** Which “VQIINK Inhibition IC50” value does the source give for B53 here?
**A.** 10.9 µm

**Q.** For B54, which “VQIINK Inhibition IC50” value is on record?
**A.** 11.7 µm

**Q.** How did the “VQIINK Inhibition IC50” value turn out when B55 was run?
**A.** 10.8 µm

**Q.** Which “VQIINK Inhibition IC50” value does the source give for B56 here?
**A.** 17.6 µm

**Q.** How did the “VQIINK Inhibition IC50” value turn out when B57 was run?
**A.** 13.6 µm
